Experimental data: paper PMC9063426, “MAP kinases differentially bind and phosphorylate NOS3 via two unique NOS3 sites” (FEBS Open Bio, 2022)
“Also recorded” adds a separate entry of the source.

Legend:
NOS3 (bovine) = assay: BLI binding of JNK1α1 to full-length NOS3
Description: Biolayer interferometry (BLI) experiments were performed on a FortéBio (Menlo Park, CA) Octet QK biosensor using streptavidin (SA) sensors. Assays were performed in opaque 96‐well microplates at 25 °C. All volumes were 200 μL. Active GST‐JNK1α1 (SignalChem) was biotinylated by amine crosslinking to NHS‐LC‐LC‐biotin (succinimidyl‐6‐[biotinamido]‐6‐hexanamidohexanoate) (Thermo Fisher, Waltham, MA, USA). Reactions were performed at a 5 : 1 molar ratio of biotin to protein for 30 min at room temperature followed by separation of protein from free biotin by passage over a desalting column. Biotinylated JNK1α1 was loaded onto sensors for 300 s, which was sufficient to saturate them. Baseline was established by dipping sensors into binding buffer (50 mM Tris, pH 7.4, 10 mM NaCl, 10% glycerol, 0.01% Tween‐20) prior to moving sensors to wells containing varying concentrations of serially diluted NOS3 in the same buffer. Association was measured for 300 s, after which sensors were moved to wells containing buffer only and dissociation was monitored for another 300 s. […] Total binding was used for analysis as nonspecific binding measured by exposing sensors without ligand to analyte was negligible at all NOS3 concentrations used; that is, total binding was effectively specific binding due to very low nonspecific binding. […]

NOS1 = assay: BLI binding of MAP kinases to NOS1; design: species or system bovine; conditions: purified active JNK1α1
NOS3 [1] = assay: In vitro kinase assay with NOS3, phospho-specific immunoblotting; type: biochemical, human; conditions: active kinases with NOS3, 5 and 60 min, immunoblot with anti-pS114
Description: (§1) Active (HIS‐NOS3) was incubated alone or with individual kinases (ERK2, p38α, JNK1α1, and PKA) in 100 µL reaction buffer (20 mM HEPES, 0.5 mM DTT, 5 mM MgCl2, 0.5 mM ATP, and 10% glycerol at a pH of 7.4). The reactions were performed at 22‐25 °C for up to 1 h, and for the examination of nitric oxide activity, samples were incubated on ice for the immediate detection of NO via the oxyhemoglobin to methemoglobin assay (see below). For immunoblotting analysis to examine phosphorylation, kinase samples were quenched with 2× sample buffer spiked with 25 mM DTT and heated to 95 °C for 5 min. Boiled samples (at equal volumes) were electrophoresed and transferred to PDVF for immunoblot staining.
All samples were loaded at equal volumes on 3–8% gradient tris‐acetate gels. All gels were transferred to PVDF membranes and transferred for either 2 h at 40V or for 20V overnight. Membranes were blocked with one block (Li‐Cor Biosciences) for 30 m and incubated with respective antibodies (at manufacturers recommend concentrations for immunoblotting, 1 : 500 for the anti‐pS600‐NOS3) overnight at 4 °C. Blots were brought to RT for 30 m and washed 3× with 1X TBST for 10 m, probed with a fluorometric secondary antibody (Li‐Cor IRDye®) for 1 h, and washed before visualizing with a Li‐Cor Odyssey.

NOS3 [2] = assay: Oxyhemoglobin assay of NO production by kinase-treated NOS3; type: biochemical, human; conditions: oxyHb assay, 2.5 µM NOS3 with ERK2 14 nM (N = 10), p38α 14 nM (N = 4), JNK1α1-GST 63 nM (N = 3) or PKA 14 nM (N = 4), 30 min; versus untreated NOS3
Description: as §1
The oxyhemoglobin assay (oxyHb assay) is a spectroscopic method that measures the oxidative reaction of oxyhemoglobin at 421 nm (oxyHb) and methemoglobin (metHb) at 401 nm. Kinase assay reactions quenched on ice were used to measure NO synthesis and consumption. All oxyHb reactions were performed at 25 °C in a BioTek 96‐well UV‐visible spectrophotometer. […] Absorbance at 401 nm and 421 nm were read for 1 m at 15‐s intervals. […] Measurements were recorded for 10 min at 15‐s intervals.
To calculate NOS3 activity, the change in absorbance/unit time was divided by the extinction coefficient (ε401‐421 = 77 200 M ^−1cm^−1 (ε401 = 38 600 M ^−1cm^−1)). […]

NOS3 [3] = assay: TCSPC fluorescence lifetime, conformation of NOS3; conditions: FMN excited at 473 nm, detected at 525 nm; NOS3 holoenzyme
Description: Time‐resolved intensity decays were recorded using time‐correlated single‐photon counting fluorescence lifetime spectrometry (TCSPC FLT) to determine whether phosphorylation by JNK1α1 changes the conformation of NOS3.

B1: mitogen‐activated protein kinase 8 (protein)
chain: MSRSKRDNNFYSVEIGDSTFTVLKRYQNLKPIGSGAQGIVCAAYDAILERNVAIKKLSRPFQNQTHAKRAYRELVLMKCVNHKNIIGLLNVFTPQKSLEEFQDVYIVMELMDANLCQVIQMELDHERMSYLLYQMLCGIKHLHSAGIIHRDLKPSNIVVKSDCTLKILDFGLARTAGTSFMMTPYVVTRYYRAPEVILGMGYKENVDLWSVGCIMGEMVCHKILFPGRDYIDQWNKVIEQLGTPCPEFMKKLQPTVRTYVENRPKYAGYSFEKLFPDVLFPADSEHNKLKASQARDLLSKMLVIDASKRISVDEALQHPYINVWYDPSEAEAPPPKIPDKQLDEREHTIEEWKELIYKEVMDLEERTKNGVIRGQPSPLAQVQQ
modifications: active (phosphorylated) form; biotinylated by amine crosslinking to NHS-LC-LC-biotin, 5 : 1 molar ratio of biotin to protein; left off: GST, end not stated, kept
notes: c-Jun N-terminal kinase
- Kd (NOS3 (bovine); 400 nM trace eliminated from fit): 18 nM
- kon (NOS3 (bovine); BLI, active GST-JNK1α1 ligand, NOS3 analyte, 25 °C, pH 7.4, global one-state fit): 4106 M⁻¹ s⁻¹
- binding to NOS1 (NOS1): No evidence of JNK1α1 binding to NOS1 beyond nonspecific binding; also recorded: no binding could be detected
- phosphorylation of NOS3 at S114 (NOS3 [1]): predominantly phosphorylated NOS3 at S114; also recorded: phosphorylates S114; also recorded: easily detected when compared to ERK2
- NO production / NOS3 activity (NOS3 [2]): do not significantly change NO production; also recorded: did not alter in vitro NOS3 activity
- conformation of NOS3 (fluorescence decay) (NOS3 [3]): no significant change in conformation; also recorded: did not differ significantly from that of unphosphorylated NOS3; also recorded: did not meaningfully change the confirmation of NOS3
